Measurements as given in US20020115066A1, “Viral therapeutics” (priority 1998, published 2002).
Peptide text beside a SMILES is read from it. * marks the point of attachment. Cbz = O=C(OCc1ccccc1)*

B1: pSFV/GB1-141: SFV construct with epitope-tagged GBV-B core, residues 1-141 of the GBV-B polyprotein (protein)
chain: MPVISTQTSPVPAPRTRKNKQTQASYPVSIKTSVERGQRAKRKVQRDARPRNYKIAGIHDGLQTLAQAALPAHGWGRQDPRHKSRNLGILLDYPLGWIGDVTTHTPLVGPLVAGAVVRPVCQIVRLLEDGVNWATGWFGVH
modifications: left off: small tags and cut ends
B2: pSFV/GB1-398: SFV construct with epitope-tagged GBV-B core, residues 1-398 of the GBV-B polyprotein (protein)
chain: MPVISTQTSPVPAPRTRKNKQTQASYPVSIKTSVERGQRAKRKVQRDARPRNYKIAGIHDGLQTLAQAALPAHGWGRQDPRHKSRNLGILLDYPLGWIGDVTTHTPLVGPLVAGAVVRPVCQIVRLLEDGVNWATGWFGVHLFVVCLLSLACPCSGARVTDPDTNTTILTNCCQRNQVIYCSPSTCLHEPGCVICADECWVPANPYISHPSNWTGTDSFLADHIDFVMGALVTCDALDIGELCGACVLVGDWLVRHWLIHIDLNETGTCYLEVPTGIDPGFLGFIGWMAGKVEAVIFLTKLASQVPYAIATMFSSVHYLAVGALIYYASRGKWYQLLLALMLYIEATSGNPIRVPTGCSIAEFCSPLMIPCPCHSYLSENVSEVICYSPKWTRPVTLE
modifications: left off: small tags and cut ends

Legend:
[1] = tested on: proteasome; experiment: Western blot of core protein after treatment with proteasome inhibitor MG132; format: cell-based, hamster; conditions: cells electroporated with pSFV.1-124, 145-152; MG132 2.5 μM from 4 hours after electroporation, harvested at 16 hours
Description: A. Western Blot analysis of extracts prepared from cells which were harvested 16 hours after electroporation following treatment with proteasomal inhibitor MG132. Aliquots of extracts containing the same number of cell equivalents were analyzed with antibody JM122. The samples were from cells electroporated with RNA from the following constructs: lanes 1 and 2, PSFV.1-195; lanes 3 and 4, pSFV.1-124, 145-152; lanes 5 and 6, pSFV.Δ125-144; lanes 7 and 8, pSFV.1-153; lanes 9 and 10, no RNA. Samples in lanes with odd numbers were prepared from cells not treated with MG132. Samples in lanes with even numbers were prepared from cells which had been incubated in the presence of MG132 (final concentration 2.5 μM) from 4 hours after electroporation.
For Western blot analysis, proteins were separated on polyacrylamide gels and transferred to nitrocellulose membrane using standard techniques. The nitrocellulose membrane was blocked in 3% gelatin, 20 mM Tris (pH 7.5), 500 mM NaCl for at least 6 hours at 37° C. prior to incubation with the primary antibody. Incubations with the primary antibody (diluted to 1/500for adipophilin antibody and 1/1000for JM122) were performed in 1% gelatin, 20 mM Tris (pH 7.5), 500 mM NaCl, 0.05% Tween 20 at either room temperature or 37° C. for approximately 3-4 hours. […] Bound antibody was detected by enhanced chemiluminescence.

[2] = tested on: lipid droplets; experiment: Intracellular localization of tagged GBV-B and HCV core proteins (Example 10); format: cell-based, hamster; conditions: BHK cells, epitope tag detected with antibody 9220 or JM122, oil red O
Description: To express portions of the GBV-B polyprotein, relevant regions were amplified by PCR from a construct pGBB (30). pGBB contains the consensus sequence for an infectious molecular clone of GBV-B (30). Primers for PCR amplification were derived from the viral sequences in pGBB and were used in the following pairs to produce DNA fragments that encoded N-terminal regions of the GBV-B polyprotein: residues 1-141, GBV-B primers 1 and 2; residues 1-194, GBV-B primers 1 and 3; residues 1-398, GBV-B primers 1 and 4. Amplified fragments were introduced initially into plasmid pGEM1 and thereafter into pSFV1 by standard cloning techniques. To permit detection of GBV-B core, an epitope tag (32) was introduced into the coding region immediately following amino acid residue 85 (FIG. 7). […] An oligonucleotide encoding the epitope tag (GBV-B5 in Table 1) was inserted between this XbaI site and a TfiI site (position 708 in the native GBV-B nucleotide sequence). The final SFV constructs that contained tagged versions of GBV-B core were termed pSFV/GB1-141, pSFV/GB1-194 and pSFV/GB1-398. […]
Cells on 13 mm coverslips were fixed for 30 min in 4% paraformaldehyde, 0.1% Triton X-100 (prepared in phosphate-buffered saline) at 4° C. […] Samples were analyzed using a Zeiss LSM confocal microscope.

| Molecule | increase in the amount of protein detected by Western blot analysis [1] [fold] | intracellular localization relative to lipid droplets [2] |
| --- | --- | --- |
| CC(C)C[C@@H](C=O)NC(=O)[C@H](CC(C)C)NC(=O)[C@H](CC(C)C)NC(=O)OCc1ccccc1 [MG132] (Cbz-Leu-Leu-Leu-aldehyde) | 4 |  |
| B1 |  | localization of the protein around lipid droplets |
| B2 |  | staining around lipid droplets |
